The record followed here is patent US20210032351A1 (XDCEXPLORER SHANGHAI, published 2021).

Where a chain is given by its changes, count along the chain named.

Assay [1] addresses T1, wild-type human EGFR protein on the surface of cells (A431, HEB, U87MG) (human, UniProt P00533 25-1210).
T1 construct: whole, on cells; One molecule for all three cell lines; the cell line is named under assay; also called wild-type EGFR
Nature of the assay: FACS on A431 cells. As for the experimental part:
(§1) The collected cells are suspended to 2×10⁶ cells/mL with an FACS buffer (HBSS+1% BSA, with the percentage being the mass percentage), added to a 96-well FACS reaction plate at 100 μL/well, then added with 100 μL/well of the purified EGFRvIII antibody (samples to be tested) obtained in example 2, and incubated on ice for 2 hours. The plate is centrifugally washed twice with the FACS buffer, added with 100 μL/well of a fluorescence (Alexa 488) labeled secondary antibody (purchased from Invitrogen), and then incubated on ice for 1 hour. The plate is centrifugally washed 3 times with the FACS buffer, added with 100 μL/well of a fixing solution [4% (v/v) paraformaldehyde] for suspending the cells, and centrifugally washed twice with the FACS buffer after 10 minutes. The cells are suspended in 100 μL of the FACS buffer, and the results are detected and analyzed by FACS (FACS Calibur, purchased from BD). Data analysis is performed by using the software (CellQuest) to obtain the mean fluorescence intensity (MFI) of the cells. Data is further analyzed by using the software (GraphPad Prism5) to perform data fitting and calculate EC50. […] A431 cells (human epidermal cell cancer cell lines) have a large amount of wild-type EGFR protein expressed on the surface thereof. […] U87MG cells (human glioma cell lines) have a small amount of wild-type EGFR protein expressed on the surface thereof, while HEB cells (human glioma cell lines) have a high level of wild-type EGFR protein expression on the surface thereof.

Assay [2] deals with T2, human EGFRvIII protein on the surface of U87MG-hEGFRvIII cells (human, UniProt P00533 25-1210).
T2 construct: whole, on cells; Stably transfected U87MG cells; also called mutant EGFRvIII protein; U87MG-EGFRvIII
Nature of the assay: FACS on U87MG-hEGFRvIII cells. As to the method: as §1, with “The cells are washed twice with the HBSS buffer and are counted, and then the cells are diluted with the HBSS buffer to 2×10⁶ cells/ml, added with 1% goat serum blocking solution, with the percentage being the mass percentage, and incubated on ice for 30 minutes, and then centrifugally washed twice with the HBSS buffer. The collected” for “The collected”

For assay [3], the target named is T3, human wild-type EGFR protein on the cell surface (human, UniProt P00533 25-1210).
T3 construct: whole, on cells; Endogenous on A431, HEB, U87MG cells and normal human primary hepatocytes; transfected on CHOk1-EGFR cells; The cell is named under assay; also called A431; HEB
In words: FACS on CHOk1-EGFR cells. As for the experimental part:
as §1, with “The cells are washed twice with the HBSS buffer and are counted, and then the cells are diluted with the HBSS buffer to 2×10⁶ cells/ml, added with 1% goat serum blocking solution, with the percentage being the mass percentage, and incubated on ice for 30 minutes, and then centrifugally washed twice with the HBSS buffer. The collected” for “The collected”

For assay [4], the target named is T4, human EGFRvIII protein on the cell surface (human, UniProt P00533 25-1210).
T4 construct: whole, on cells; the cell line is named under assay; also called hEGFRvIII; U87MG-hEGFRvIII
Nature of the assay: FACS on CHOk1-EGFRvIII cells. As for the experimental part:
The desired cells are subjected to an expanded culture to 90% confluence in a T-75 cell culture flask; the medium is sucked out, and the cells are washed twice with a HBSS buffer (Hanks Balanced Salt Solution) (purchased from Invitrogen), and then treated with an enzyme-free cell dissociation solution (Versene solution: purchased from Life Technology) and collected. The cells are washed twice with the HBSS buffer and are counted, and then the cells are diluted with the HBSS buffer to 2×10⁶ cells/ml, added with 1% goat serum blocking solution, with the percentage being the mass percentage, and incubated on ice for 30 minutes, and then centrifugally washed twice with the HBSS buffer. The collected cells are suspended to 2×10⁶ cells/mL with an FACS buffer (HBSS+1% BSA, with the percentage being the mass percentage), added to a 96-well FACS reaction plate at 100 μL/well, then added with 100 μL/well of the purified EGFRvIII antibody (samples to be tested) obtained in example 2, and incubated on ice for 2 hours. The plate is centrifugally washed twice with the FACS buffer, added with 100 μL/well of a fluorescence (Alexa 488) labeled secondary antibody (purchased from Invitrogen), and then incubated on ice for 1 hour. The plate is centrifugally washed 3 times with the FACS buffer, added with 100 μL/well of a fixing solution [4% (v/v) paraformaldehyde] for suspending the cells, and centrifugally washed twice with the FACS buffer after 10 minutes. The cells are suspended in 100 μL of the FACS buffer, and the results are detected and analyzed by FACS (FACS Calibur, purchased from BD). Data analysis is performed by using the software (CellQuest) to obtain the mean fluorescence intensity (MFI) of the cells. Data is further analyzed by using the software (GraphPad Prism5) to perform data fitting and calculate EC50. […] A431 cells (human epidermal cell cancer cell lines) have a large amount of wild-type EGFR protein expressed on the surface thereof.

Assay [5] deals with T5, human EGFRvIII-hFc protein (human, UniProt P00533 25-645).
T5 construct: extracellular domain; also called immunogen A; hFc-tagged EGFRvIII protein; not shown: human IgG Fc fragment (hFc) of the pCpC vector
In words: ELISA, EGFRvIII-hFc coated. As for the experimental part:
The purified immunogen A (EGFRvIII-hFc) obtained in example 1 (for the preparation method, see step (I) in example 1) is diluted with PBS to a final concentration of 1.0 μg/mL, and then added to a 96-well ELISA plate at 100 μl/well. The plate is sealed with a plastic film and incubated at 4° C. overnight. The next day, the plate is washed twice with a plate washing solution [PBS+0.01% (v/v) Tween20], and added with a blocking solution [PBS+0.01% (v/v) Tween20+1% (w/w) BSA] for blocking 2 hours at room temperature. […] The plate is incubated for 2 hours at 37° C., and then washed 3 times with the plate washing solution [PBS+0.01% (v/v) Tween20]. The plate is added with an HRP (horseradish peroxidase) labeled secondary antibody (purchased from Sigma), incubated at 37° C. for 2 hours, and then washed 3 times with the plate washing solution [PBS+0.01% (v/v) Tween20]. The plate is added with 100 μl of TMB substrate/well, incubated for 30 minutes at room temperature, and then added with 100 μl of stopping solution (1.0N HCl)/well. A450 nm value is read using an ELISA plate reader (SpectraMax 384plus, purchased from Molecular Device), and the results are shown in FIG. 11 and table 19.
A general note: ELISA stands for enzyme-linked immunosorbent assay.

B1: Murine anti-46C4 (antibody, V domains shown)
VH: EVHLQQSVAELVRPGASVKLSCTASGFNIKNTYMHWVKQRPEQGLEWIGRIDPANGNTKYAPKFQGKATITADTSSNTAYLQLSSLTSEDTAIYYCASDFDYWGQGTTLTVSS
VL: DVLMTQTPLSLPVSLGDQVSISCRSSQSIVNSNGNTHLEWYLQKPGQSPKVLIYKVSKRFSGVPDRFSGSGSGTDFTLKISRVEAEDLGVYYCFQGSHVPYTFGGGTKLEIK
notes: Mouse hybridoma antibody; also called 46C4A6
By EC50 is commonly meant the midpoint of the concentration-response curve. Low readings indicate a more potent agent, high ones a less potent agent. Regarding B1, the binding result in assay [1] was “no binding”. A half-maximal response in assay [2] (EC50) required 13.3 nM.

B2: Murine anti-49G12 (antibody, V domains shown)
VH: EVQLLQSGAELVKPGASVKLSCTASGFNIKDYYMHWVKQRTEQGLEWIGRIDPEDGETKYAPKFQGKATMTADTSSNTAYLQLSSLTSEDTAVYYCASSAYYGRNYWGQGTTLTVSS
VL: QIVLTQSPAIMSASPGEKVTLTCSASSSLSSSYLYWYQQKPGSSPKLWIYSTSNLASGVPARFSGSGSGTSYSLTISSMEAEDAASYFCHQWSSYPYTFGGGTKLEIK
notes: Mouse hybridoma antibody; also called 49G12G5
As for B2, the binding result in assay [1] is on record as “no binding”. This molecule registered an EC50 in assay [2] of 7.9 nM.

B3: Murine anti-51G7 (antibody, V domains shown)
VH: B2 VH with L5Q, Y32F, M34I, G66D, M70I, T71I, A100S, R104N
VL: B2 VL with L29V, S32N, Y95F
notes: Mouse hybridoma antibody; also called 51G7C2
On to B3, for which the binding result in assay [1] is on record as “no binding”. Also, the EC50 in assay [2] was 26.2 nM.

B4: Murine anti-53D8 (antibody, V domains shown)
VH: QVQLQQSGAELARPGASVKMSCKASGYTFTSYTMHWVKQRPGQGLEWIGYINPSSGYTKYNQIFKDKATLTADKSSSTAYMQLSSLTSEDSAVYYCTRGGGRGFAYWGQGTLVTVSA
VL: DILMTQSPSSMSVSLGDTVSITCHASQDINSNIGWLQQKPGKSFKGLIYHGTNLEDGVPSRFSGSGSGADYSLTISSLESEDFADYYCVQYAQFPFTFGSGTKLEIK
notes: Mouse hybridoma antibody; also called 53D8H4
Turning to B4, the binding result in assay [1] is “no binding”. The molecule further came in with an EC50 in assay [2] of 6.8 nM.

B5: Murine anti-64B11 (antibody, V domains shown)
VH: EVQLQQSGAELVKPGASVKLSCTASGFNIKDYYMHWVKQRTEQGLEWIGRIDPEDGETKYAPKFQGKATITADTSSNTAYLQLSNLPSEDTAVYYCGCRTGGFAYWGQGTLVTVSA
VL: B4 VL with D28G, G46A, K103E
notes: Mouse hybridoma antibody; also called 64B11F2
With B5, in assay [1], the binding result is on record as “no binding”. This molecule also displayed an EC50 in assay [2] of 25.3 nM.

B6: Murine anti-56F10 (antibody, V domains shown)
VH: B5 VH with Y32F, N85S, P87T
VL: QIVLTQSPAIMSASPGEKVTMTCSASSSVSYLYWYQQKPGSSPSLLIYDTSNLASGVPVRFSGSGSGTSYSLTISRMEAEDAATYYCQQWSRNPWTFGGGTKLEIK
notes: Mouse hybridoma antibody; also called 56F10G2
Regarding B6, in assay [1], the binding result is reported as “no binding”. This molecule also yielded an EC50 in assay [2] of 12.3 nM.

B7: Murine anti-59G3 (antibody, V domains shown)
VH: DVQLQESGPGLVKPSQSLSLTCSVTGYSITSGYYWHWIRQFPENKLEWMGYISYDGSNIYNPSLKNRISITRDTSKNQFFLKLNSVTTEDTATYYCAINSDYALDYWGQGTSVTVSS
VL: B6 VL with L32M, S44R, R92S, N93Y, P94S, W95L, G99A, I105L
notes: Mouse hybridoma antibody; also called 59G3F12
Regarding B7, in assay [1], the binding result is recorded as “no binding”. The same molecule returned an EC50 in assay [2] of 40.9 nM.

B8: c75G7C6-1 (antibody, human IgG1, V domains shown)
VH: EVQLQQSGPELVKPGASVKIPCKASGYTFTDYNMDWVKQSHGKSLEWIGDINPNNADTIYNQKFKGKATLTVDKSSSTAYMELRSLTSEDTAVYYCARGDYDGYYPVYYAMDYWGQGTSVTVSS
VL: ENVLTQSPAIMSASPGEKVTMTCRASSSVSSSYLHWYQQKSGASPKLWIFSTSNLAAGVPARFSGSGSGTSYSLTVSSVEAEDAATYYCQQYSGYPLTFGAGTKLELK
notes: Chimeric 75G7C6 with NG of heavy chain CDR2 mutated to NA; also called c754G7C6-1; mutant chimeric antibody NG/NA
On to B8, for which, in assay [3], it took 11.3 nM to reach a half-maximal effect (EC50) and the “Maximum mean fluorescence intensity” value is 134000 MFI. Besides, in assay [4], the midpoint of the response, the EC50, lay at 7.45 nM and the “Maximum mean fluorescence intensity” value is 110000 MFI. Further, in assay [5], the EC50 turned out to be 0.02 nM and the “Maximum OD450 value” came to 3.44 OD450.

B9: c75G7C6-3 (antibody, human IgG1, V domains shown)
VH: B8 VH with A56G, D102E
VL: B8 VL
notes: Chimeric 75G7C6 with DG of heavy chain CDR3 mutated to EG; Human IgG1/kappa; also called mutant chimeric antibody DG/EG
B9: in assay [3], the EC50 stood at 44.8 nM and the “Maximum mean fluorescence intensity” value amounted to 84700 MFI. Further, in assay [4], a half-maximal effect (EC50) was put at 24.8 nM and the “Maximum mean fluorescence intensity” value was 94100 MFI. Also, in assay [5], it took 0.54 nM to reach a half-maximal effect (EC50) and the “Maximum OD450 value” stood at 1.86 OD450.

B10: c75G7C6-2 (antibody, human IgG1, V domains shown)
VH: B8 VH with N55Q, A56G
VL: B8 VL
notes: Chimeric 75G7C6 with NG of heavy chain CDR2 mutated to QG; also called c754G7C6-2; mutant chimeric antibody NG/QG
For B10, the EC50 came out at 16.9 nM in assay [3], 11.6 nM in assay [4] and 0.03 nM in assay [5]. The “Maximum mean fluorescence intensity” value in assay [3] stood at 130000 MFI; in assay [4], 111000 MFI. Further, in assay [5], the “Maximum OD450 value” stood at 3.23 OD450.
